B1: W345-BMK1.uIgG4PE.K (antibody, from another filing, V domains shown)
VH: QMQLVQSGAEVKKTGSSVKVSCKASGFNIKDYYLHWVRQAPGQALEWMGWIDPDQGDTEYAQKFQDRVTITRDRSMSTAYMELSSLRSEDTAMYYCNAAYGSSSYPMDYWGQGTTVTV
VL: NIQMTQSPSAMSASVGDRVTITCKASQDIHRYLSWFQQKPGKVPKHLIYRANRLVSGVPSRFSGSGSGTEFTLTISSLQPEDFATYYCLQYDEFPYTFGGGTKVEIK
B2: W345-BMK4.uIgG4.SPK (antibody, from another filing, V domains shown)
VH: QVQLQESGPGLVKPSGTLSLTCAVSGVSIRSINWWNWVRQPPGKGLEWIGEIYHSGSTNYNPSLKSRVTISVDKSKNQFSLKLNSVTAADTAVYYCARDGGIAVTDYYYYGLDVWGQGTTVTVSS
VL: EIVLTQSPATLSLSPGERATLSCRASESVSSNLAWYQQKPGQAPRLLIYGAFNRATGIPARFSGSGSGTDFTLTISSLEPEDFAVYYCQQRSDWFTFGGGTKVEIK

Experiments:
[1] = target: CD47 on human red blood cells (human) (UniProt Q08722); assay: FACS on human red blood cells, goat anti-human IgG-Fc PE
[2] = target: CD47 on human red blood cells (human) (UniProt Q08722); assay: FACS on human red blood cells, goat anti-human IgG-Fc PE; blank (Neg) 232
[3] = target: human CD47 ECD protein (human) (UniProt Q08722); assay: ELISA on plate-coated human CD47 ECD (1 µg/mL), goat anti-human IgG-Fc-HRP, OD450
[4] = target: human CD47 on engineered CHO-K1 cells (human) (UniProt Q08722); assay: FACS on CHO-K1 cells expressing human CD47 (CHOK1-huCD47), goat anti-human IgG-Fc PE
[5] = target: human CD47 on engineered CHO-K1 cells (human) (UniProt Q08722); assay: competition FACS against human SIRPα-His (1 µg/mL) on CHOK1-huCD47 cells; ligand only 1086
[6] = target: cynomolgus monkey CD47 on engineered CHO-K1 cells (cynomolgus monkey); assay: FACS on CHO-K1 cells expressing cynomolgus CD47 (CHOK1-cynoCD47), goat anti-human IgG-Fc PE
Sequence of cynomolgus monkey CD47 on engineered CHO-K1 cells (cynomolgus monkey) (chain, as listed by the source, change not shown): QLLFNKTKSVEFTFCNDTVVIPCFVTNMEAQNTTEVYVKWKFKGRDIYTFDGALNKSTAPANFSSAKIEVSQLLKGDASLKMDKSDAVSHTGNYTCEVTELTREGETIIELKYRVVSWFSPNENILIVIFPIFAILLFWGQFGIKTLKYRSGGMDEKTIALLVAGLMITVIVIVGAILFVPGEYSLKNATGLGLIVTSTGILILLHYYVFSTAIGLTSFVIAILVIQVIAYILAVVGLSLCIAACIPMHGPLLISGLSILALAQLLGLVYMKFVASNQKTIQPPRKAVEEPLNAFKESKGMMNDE

[7] = target: human CD47 ECD protein (human) (UniProt Q08722); assay: ELISA on plate-coated human CD47 ECD (1 µg/mL), goat anti-human IgG-Fc-HRP, OD450; blank (Neg) 0.102
[8] = target: human CD47 ECD protein (human) (UniProt Q08722); assay: competition ELISA against human SIRPα-His (1 µg/mL) on plate-coated human CD47 ECD; ligand only 1.438
[9] = target: human CD47 on engineered CHO-K1 cells (human) (UniProt Q08722); assay: FACS on CHO-K1 cells expressing human CD47 (CHOK1-huCD47), goat anti-human IgG-Fc PE; blank (Neg) 34.8
[10] = target: cynomolgus monkey CD47 on engineered CHO-K1 cells (cynomolgus monkey); assay: FACS on CHO-K1 cells expressing cynomolgus CD47 (CHOK1-cynoCD47), goat anti-human IgG-Fc PE; blank (Neg) 47.6
[11] = target: human CD47 ECD protein (human) (UniProt Q08722); assay: competition ELISA: plate-coated human CD47 ECD (1 µg/mL), antibody titrated together with human SIRPα-His (1 µg/mL), bound SIRPα detected with anti-His-HRP
[12] = target: human CD47 on engineered CHO-K1 cells (human) (UniProt Q08722); assay: competition FACS: CHO-K1 cells expressing human CD47, antibody titrated together with human SIRPα-His (1 µg/mL), bound SIRPα detected with anti-His-biotin and streptavidin-PE

Row | Binder | EC50 [1] [nM] | Max MFI [2] [MFI] | EC50 [3] [nM] | EC50 [4] [nM] | Max Inhibit% [5] [%] | Min MFI [5] [MFI] | EC50 [6] [nM] | Max OD [7] [OD450] | Max Inhibit% [8] [%] | Min OD [8] [OD450] | Max MFI [9] [MFI] | Max MFI [10] [MFI] | IC50 [11] [nM] | IC50 [12] [nM]
1 | B1 | 0.69 | 42800 | 0.019 | 0.43 | 71.3 | 312 | 0.34 | 1.92 | 91.7 | 0.12 | 50000 | 34200 | 0.97 | 0.51
2 | B2 | 4.82 | 37600 | 0.038 | 1.22 | 67.4 | 354 | 38.9 | 1.82 | 90.5 | 0.137 | 55400 | 30600 | 2.84 | 1.92

Source: patent US20220403023A1
